Results published in the supplement of paper PMC10065799, “High-throughput profiling of sequence recognition by tyrosine kinases and SH2 domains using bacterial peptide display” (eLife, 2023).

What follows are sequences tested against Hck (UniProt P08631) (assay: phosphorylation enrichment, bacterial display (enrichment ratio); higher = better substrate or ligand; peptides without Tyr show the background).
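Also: 11-residue human phosphosite peptides and single-mutation variants displayed on the E. coli surface, counted by deep sequencing, each peptide's frequency after selection divided by its frequency in the unselected input library; frequency after pTyr selection over input frequency; kinase dosed for 20-30% of maximal phosphorylation in three min.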

Sequence of Hck (P08631 whole entry, looked up): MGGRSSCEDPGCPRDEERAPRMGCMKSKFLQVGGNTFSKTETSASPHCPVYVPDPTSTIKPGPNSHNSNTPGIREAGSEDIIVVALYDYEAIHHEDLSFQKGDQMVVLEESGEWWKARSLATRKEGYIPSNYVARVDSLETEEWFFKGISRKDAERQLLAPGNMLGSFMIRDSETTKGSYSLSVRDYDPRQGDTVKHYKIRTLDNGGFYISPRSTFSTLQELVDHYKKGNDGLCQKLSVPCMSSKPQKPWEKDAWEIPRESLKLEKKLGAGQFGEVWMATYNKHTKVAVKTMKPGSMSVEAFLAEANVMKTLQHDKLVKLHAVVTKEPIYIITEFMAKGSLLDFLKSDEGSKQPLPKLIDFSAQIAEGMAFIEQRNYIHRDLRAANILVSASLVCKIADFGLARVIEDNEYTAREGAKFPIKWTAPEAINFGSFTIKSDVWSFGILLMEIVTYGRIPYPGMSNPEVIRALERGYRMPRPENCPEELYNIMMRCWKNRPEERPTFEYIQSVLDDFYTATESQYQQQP

Sequence | phosphorylation enrichment
VECHLYFTQPK [AKR1D1_Y199_P198L] | 0.631
AAPAAYDAADT [GAMT_Y27] | 0.495
VVCKNYAEAKD [ALB_Y343_D338V] | 0.519
KRTFEYEADKN [DENND2B_Y396] | 0.483
CRWKRYQRSHD [GDPD5_Y30] | 0.527
FNNFGYGSDGF [HNRNPH3_Y161_N163S_YF] | 0.57
WFKKFYDANCD [MAPRE2_Y158_Y162C] | 0.475
LIGWRYDDPEV [HSPA9_Y128_R126W] | 0.471
KITVIYDGACQ [VWDE_Y1035] | 0.711
CQNRFYDAKVR [FKBP6_Y188_R183C] | 0.475
ATVQNYLPKCI [A2M_Y817_L815Q] | 0.346
RHPEVYHHLGV [NVL_Y290] | 1.09
LQRCKNSHMEP [TEX45_Y434_Y434N] | 0.741
GKVFVYHGSSL [ITGA7_Y458_I457V] | 0.434
KQCSDYARELE [MYH3_Y1140_R1137C] | 0.571
LDLSYYTTSSS [EMD_Y182_P183T] | 1.01
RFLRGYHQDAF [HLA-A_Y137_R138H_YF] | 0.553

Sequence | phosphorylation enrichment
HDKEYYSVHNK [MET_Y1235_Y1230H] | 0.911
ENSLDYGSAWA [AR_Y395_P392S] | 0.566
FFTEEYVRDHP [DOCK2_Y1555] | 0.485
DCAAIYGSEPE [AKR1A1_Y50_N52S] | 0.844
VGAKTYKMSMA [CPS1_Y309_A304V] | 0.307
AKFLGYPPPEI [KDR_Y357_YF] | 0.488
TEHMAYCPIQC [SHC4_Y403_Q400H] | 0.805
NLSVHYDSSLK [ABCC8_Y1353_R1352H] | 0.453
GGEEFYVHYVG [KAT8_Y90_R86G] | 0.488
QKKEEYKMALF [F8_Y1990_R1985Q_YF] | 0.561
GKLIFHDLRGE [KARS1_Y145_Y145H] | 0.389
HDRGNYVRLNM [RECQL4_Y353] | 0.765
RHPLEYLRQFP [NARS2_Y138_YF] | 1.38
RCQDLYSARDL [SART1_Y249_R245C] | 9.83
IEEGTYGVAFR [CDK11B_Y449_V452A_YF] | 6.06
SEKVVYQRFTE [NCF1_Y41_R42Q] | 0.959

The sequences below were run against Jak2 (UniProt O60674) in the same assay as above.
Sequence of Jak2 (O60674 whole entry, looked up): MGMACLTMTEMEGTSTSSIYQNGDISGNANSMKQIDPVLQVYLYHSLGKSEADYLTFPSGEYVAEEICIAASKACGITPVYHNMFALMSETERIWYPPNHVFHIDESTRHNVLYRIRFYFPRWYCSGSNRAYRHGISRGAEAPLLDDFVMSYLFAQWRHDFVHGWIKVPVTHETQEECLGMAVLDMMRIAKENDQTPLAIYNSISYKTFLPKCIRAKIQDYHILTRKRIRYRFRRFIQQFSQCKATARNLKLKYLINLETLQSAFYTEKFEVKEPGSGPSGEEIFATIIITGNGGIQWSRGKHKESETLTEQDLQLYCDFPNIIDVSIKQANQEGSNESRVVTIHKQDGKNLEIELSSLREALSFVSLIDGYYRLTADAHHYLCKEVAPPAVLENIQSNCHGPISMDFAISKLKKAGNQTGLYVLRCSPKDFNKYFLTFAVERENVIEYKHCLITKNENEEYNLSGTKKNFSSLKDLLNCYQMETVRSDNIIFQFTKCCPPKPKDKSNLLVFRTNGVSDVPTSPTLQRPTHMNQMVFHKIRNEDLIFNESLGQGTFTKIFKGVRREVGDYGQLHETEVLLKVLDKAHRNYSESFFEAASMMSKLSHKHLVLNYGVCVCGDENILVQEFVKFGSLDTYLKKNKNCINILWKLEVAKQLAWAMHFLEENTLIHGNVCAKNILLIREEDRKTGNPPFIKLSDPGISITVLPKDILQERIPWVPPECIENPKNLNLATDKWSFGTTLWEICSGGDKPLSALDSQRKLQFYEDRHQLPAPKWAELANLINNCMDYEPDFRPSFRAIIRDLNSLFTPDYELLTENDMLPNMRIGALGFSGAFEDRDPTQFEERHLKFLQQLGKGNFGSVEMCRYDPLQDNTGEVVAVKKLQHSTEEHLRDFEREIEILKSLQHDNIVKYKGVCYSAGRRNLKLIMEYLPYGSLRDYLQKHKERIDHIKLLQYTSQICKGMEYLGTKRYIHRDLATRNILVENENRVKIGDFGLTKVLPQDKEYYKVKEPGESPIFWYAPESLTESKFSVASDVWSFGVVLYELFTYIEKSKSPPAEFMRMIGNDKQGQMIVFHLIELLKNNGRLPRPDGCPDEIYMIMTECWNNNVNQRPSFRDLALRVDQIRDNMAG

Sequence | phosphorylation enrichment
VECHLYFTQPK [AKR1D1_Y199_P198L] | 1.58
AAPAAYDAADT [GAMT_Y27] | 0.857
VVCKNYAEAKD [ALB_Y343_D338V] | 0.875
KRTFEYEADKN [DENND2B_Y396] | 0.781
CRWKRYQRSHD [GDPD5_Y30] | 0.573
FNNFGYGSDGF [HNRNPH3_Y161_N163S_YF] | 0.829
WFKKFYDANCD [MAPRE2_Y158_Y162C] | 0.948
LIGWRYDDPEV [HSPA9_Y128_R126W] | 1.17
KITVIYDGACQ [VWDE_Y1035] | 1.14
CQNRFYDAKVR [FKBP6_Y188_R183C] | 0.869
ATVQNYLPKCI [A2M_Y817_L815Q] | 0.688
RHPEVYHHLGV [NVL_Y290] | 0.823
LQRCKNSHMEP [TEX45_Y434_Y434N] | 0.9
GKVFVYHGSSL [ITGA7_Y458_I457V] | 0.674
KQCSDYARELE [MYH3_Y1140_R1137C] | 1.19
LDLSYYTTSSS [EMD_Y182_P183T] | 1.93
RFLRGYHQDAF [HLA-A_Y137_R138H_YF] | 0.815

Sequence | phosphorylation enrichment
HDKEYYSVHNK [MET_Y1235_Y1230H] | 0.75
ENSLDYGSAWA [AR_Y395_P392S] | 0.864
FFTEEYVRDHP [DOCK2_Y1555] | 1.19
DCAAIYGSEPE [AKR1A1_Y50_N52S] | 1.46
VGAKTYKMSMA [CPS1_Y309_A304V] | 0.511
AKFLGYPPPEI [KDR_Y357_YF] | 0.565
TEHMAYCPIQC [SHC4_Y403_Q400H] | 0.778
NLSVHYDSSLK [ABCC8_Y1353_R1352H] | 0.612
GGEEFYVHYVG [KAT8_Y90_R86G] | 1.22
QKKEEYKMALF [F8_Y1990_R1985Q_YF] | 0.552
GKLIFHDLRGE [KARS1_Y145_Y145H] | 0.632
HDRGNYVRLNM [RECQL4_Y353] | 1.09
RHPLEYLRQFP [NARS2_Y138_YF] | 0.66
RCQDLYSARDL [SART1_Y249_R245C] | 1.97
IEEGTYGVAFR [CDK11B_Y449_V452A_YF] | 0.859
SEKVVYQRFTE [NCF1_Y41_R42Q] | 0.931
